Data: patent US11814447B2, “Peptide ligands for binding to EphA2” (BICYCLERD LIMITED, priority 2018, dated 2023)
Starred links: 1 amine or outer side, 2 acyl side, 3 side chain; linkers in the order of their positions; H or OH if unused. Positions of bridges follow the written chain, without caps; N, C: chain ends. Non-standard residues stand in square brackets, D forms with d. No end group written: not given here. TATA = O=C(CC[*:1])N1CN(C(=O)CC[*:2])CN(C(=O)CC[*:3])C1; 1Nal = N[C@@H](Cc1cccc2ccccc12)C(=O)O; TBMB = c1c(C[*:1])cc(C[*:3])cc1C[*:2]; hArg = N=C(N)NCCCC[C@H](N)C(=O)O; Tle = CC(C)(C)[C@H](N)C(=O)O; Aib = CC(C)(N)C(=O)O; azaGly = NNC(=O)O; βAla = NCCC(=O)O; Sar = CNCC(=O)O

B1: Bicycle Compound 223 (peptide)
peptide: [βAla][Sar][Sar][Sar][Sar][Sar][Sar][Sar][Sar][Sar][Sar]HDVPCPWGPFWCPVNRPGC
modifications: linker 16-23-30 via TBMB
B2: Bicycle Compound 226 (peptide)
peptide: [βAla][Sar][Sar][Sar][Sar][Sar][Sar][Sar][Sar][Sar][Sar]H[dD]VPCPWGPFWCPVNRPGC
modifications: linker 16-23-30 via TBMB
B3: Bicycle Compound 227 (peptide)
peptide: Ac-[Sar][Sar]AH[dD]VPCP[1Nal]GPFWCP[Tle]N[hArg]PGC
modifications: linker 8-15-22 via TBMB
B4: Bicycle Compound 230 (peptide)
peptide: Ac-[Sar][Sar]A[dH]DVPCP[1Nal]GPFWCP[Tle]N[hArg]PGC
modifications: linker 8-15-22 via TBMB
B5: Bicycle Compound 233 (peptide)
peptide: Ac-[Sar][Sar]A[dH]DVPCPWG[Aib]FWCP[Tle]NR[Aib]GC
modifications: linker 8-15-22 via TBMB
B6: Bicycle Compound 267 (peptide)
peptide: Ac-[Sar][Sar]H[dD]VPCPW[azaGly]PFWCPVNRPGC
modifications: linker 7-14-21 via TBMB
B7: Bicycle Compound 282 (peptide)
peptide: Ac-[Sar][Sar]A[dD]DVTCP[1Nal]GPFWCPVNRPGC
modifications: linker 8-15-22 via TBMB
B8: Bicycle Compound 283 (peptide)
peptide: Ac-[Sar][Sar]A[dD]DVTCP[1Nal]GPF[1Nal]CPVNRPGC
modifications: linker 8-15-22 via TBMB
B9: Bicycle Compound 284 (peptide)
peptide: Ac-[Sar][Sar]A[dD]DVTCP[1Nal]G[Aib]FWCP[Tle]N[hArg]PGC
modifications: linker 8-15-22 via TBMB
B10: Bicycle Compound Number 15 (TATA scaffold), ACMNDWWCAMGWKCA (peptide)
peptide: ACMNDWWCAMGWKCA
modifications: linker 2-8-14 via TATA
B11: Bicycle Compound Number 16 (TATA scaffold), ACVPDRRCAYMNVCA (peptide)
peptide: ACVPDRRCAYMNVCA
modifications: linker 2-8-14 via TATA
B12: Bicycle Compound Number 17 (TATA scaffold), (β-Ala)-Sar10-ACVPDRRCAYMNVC (peptide)
peptide: [βAla][Sar][Sar][Sar][Sar][Sar][Sar][Sar][Sar][Sar][Sar]ACVPDRRCAYMNVC
modifications: linker 13-19-25 via TATA
B13: Bicycle Compound Number 18 (TATA scaffold), DLRCGGDPRCAYMNVCA (peptide)
peptide: DLRCGGDPRCAYMNVCA
modifications: linker 4-10-16 via TATA
B14: Bicycle Compound Number 19 (TATA scaffold), SRPCVIDSRCAYMNVCA (peptide)
peptide: SRPCVIDSRCAYMNVCA
modifications: linker 4-10-16 via TATA
B15: Bicycle Compound Number 20 (TATA scaffold), ESRCSPDARCAYMNVCA (peptide)
peptide: ESRCSPDARCAYMNVCA
modifications: linker 4-10-16 via TATA
B16: Bicycle Compound Number 21 (TATA scaffold), HSGCRPDPRCAYMNVCA (peptide)
peptide: HSGCRPDPRCAYMNVCA
modifications: linker 4-10-16 via TATA
B17: Bicycle Compound Number 23 (TATA scaffold), ETVCLPDSRCAYMNVCA (peptide)
peptide: ETVCLPDSRCAYMNVCA
modifications: linker 4-10-16 via TATA
B18: Bicycle Compound Number 25 (TATA scaffold), ACVPDRRCAFENVCVDH (peptide)
peptide: ACVPDRRCAFENVCVDH
modifications: linker 2-8-14 via TATA
B19: Bicycle Compound Number 27 (TATA scaffold), ACVPDRRCAFQDVCDHE (peptide)
peptide: ACVPDRRCAFQDVCDHE
modifications: linker 2-8-14 via TATA
B20: Bicycle Compound Number 28 (TATA scaffold), ACVPDRRCAFRDVCLTG (peptide)
peptide: ACVPDRRCAFRDVCLTG
modifications: linker 2-8-14 via TATA
B21: Bicycle Compound Number 33 (TATA scaffold), ACTKPTGFCAYPDTICA (peptide)
peptide: ACTKPTGFCAYPDTICA
modifications: linker 2-9-16 via TATA
B22: Bicycle Compound Number 34 (TATA scaffold), ACRGEWGYCAYPDTICA (peptide)
peptide: ACRGEWGYCAYPDTICA
modifications: linker 2-9-16 via TATA
B23: Bicycle Compound Number 35 (TATA scaffold), ACRNWGMYCAYPDTICA (peptide)
peptide: ACRNWGMYCAYPDTICA
modifications: linker 2-9-16 via TATA
B24: Bicycle Compound Number 36 (TATA scaffold), ACPDWGKYCAYPDTICA (peptide)
peptide: ACPDWGKYCAYPDTICA
modifications: linker 2-9-16 via TATA
B25: Bicycle Compound Number 38 (TATA scaffold), ACSSCWAYPDSVCA (peptide)
peptide: ACSSCWAYPDSVCA
modifications: linker 2-5-13 via TATA
B26: Bicycle Compound Number 39 (TATA scaffold), ACQSCWAYPDTYCA (peptide)
peptide: ACQSCWAYPDTYCA
modifications: linker 2-5-13 via TATA
B27: Bicycle Compound Number 46 (TATA scaffold), ACGFMGLEPCELFCA (peptide)
peptide: ACGFMGLEPCELFCA
modifications: linker 2-10-14 via TATA (inferred)
B28: Bicycle Compound Number 40 (TATA scaffold), ACGFMGLEPCETFCA (peptide)
peptide: ACGFMGLEPCETFCA
modifications: linker 2-10-14 via TATA
B29: Bicycle Compound Number 42 (TATA scaffold), ACGFMGLEPCEMVCA (peptide)
peptide: ACGFMGLEPCEMVCA
modifications: linker 2-10-14 via TATA
B30: Bicycle Compound Number 44 (TATA scaffold), ACGFMGLEPCELVCA (peptide)
peptide: ACGFMGLEPCELVCA
modifications: linker 2-10-14 via TATA
B31: Bicycle Compound Number 50 (TATA scaffold), ACGFMGLEPCEMYCA (peptide)
peptide: ACGFMGLEPCEMYCA
modifications: linker 2-10-14 via TATA (inferred)
B32: Bicycle Compound Number 41 (TATA scaffold), ACGFMGLVPCEVHCA (peptide)
peptide: ACGFMGLVPCEVHCA
modifications: linker 2-10-14 via TATA
B33: Bicycle Compound Number 43 (TATA scaffold), ACGFMGLEPCVTYCA (peptide)
peptide: ACGFMGLEPCVTYCA
modifications: linker 2-10-14 via TATA
B34: Bicycle Compound Number 45 (TATA scaffold), ACGFMGLVPCNVFCA (peptide)
peptide: ACGFMGLVPCNVFCA
modifications: linker 2-10-14 via TATA (inferred)
B35: Bicycle Compound Number 47 (TATA scaffold), ACGFMGLEPCELFCMPK (peptide)
peptide: ACGFMGLEPCELFCMPK
modifications: linker 2-10-14 via TATA (inferred)
B36: Bicycle Compound Number 49 (TATA scaffold), ACGFMGLEPCELYCAHT (peptide)
peptide: ACGFMGLEPCELYCAHT
modifications: linker 2-10-14 via TATA (inferred)
B37: Bicycle Compound Number 51 (TATA scaffold), ACGFMGLVPCELYCADN (peptide)
peptide: ACGFMGLVPCELYCADN
modifications: linker 2-10-14 via TATA (inferred)
B38: Bicycle Compound Number 52 (TATA scaffold), ACPLVNPLCLTSGWKCA (peptide)
peptide: ACPLVNPLCLTSGWKCA
modifications: linker 2-9-16 via TATA (inferred)
B39: Bicycle Compound Number 64 (TATA scaffold), ACPLVNPLCLHPGWTCA (peptide)
peptide: ACPLVNPLCLHPGWTCA
modifications: linker 2-9-16 via TATA (inferred)
B40: Bicycle Compound Number 53 (TATA scaffold), ACPMVNPLCLHPGWICA (peptide)
peptide: ACPMVNPLCLHPGWICA
modifications: linker 2-9-16 via TATA (inferred)
B41: Bicycle Compound Number 54 (TATA scaffold), ACPLVNPLCLHPGWICA (peptide)
peptide: ACPLVNPLCLHPGWICA
modifications: linker 2-9-16 via TATA (inferred)
B42: Bicycle Compound Number 55 (TATA scaffold), ACPLVNPLCLHPGWRCA (peptide)
peptide: ACPLVNPLCLHPGWRCA
modifications: linker 2-9-16 via TATA (inferred)
B43: Bicycle Compound Number 57 (TATA scaffold), ACPLVNPLCLVPGWSCA (peptide)
peptide: ACPLVNPLCLVPGWSCA
modifications: linker 2-9-16 via TATA (inferred)
B44: Bicycle Compound Number 82 (TATA scaffold), ACPLVNPLCLAPGWTCA (peptide)
peptide: ACPLVNPLCLAPGWTCA
modifications: linker 2-9-16 via TATA
B45: Bicycle Compound Number 84 (TATA scaffold), ACPLVNPLCLEPGWTCA (peptide)
peptide: ACPLVNPLCLEPGWTCA
modifications: linker 2-9-16 via TATA
B46: Bicycle Compound Number 86 (TATA scaffold), ACPLVNPLCLHPGWSCA (peptide)
peptide: ACPLVNPLCLHPGWSCA
modifications: linker 2-9-16 via TATA
B47: Bicycle Compound Number 97 (TATA scaffold), ACPMVNPLCLHPGWTCA (peptide)
peptide: ACPMVNPLCLHPGWTCA
modifications: linker 2-9-16 via TATA
B48: Bicycle Compound Number 56 (TATA scaffold), ACPLVNPLCNLPGWTCA (peptide)
peptide: ACPLVNPLCNLPGWTCA
modifications: linker 2-9-16 via TATA (inferred)
B49: Bicycle Compound Number 58 (TATA scaffold), ACPLVNPLCLLDGWTCA (peptide)
peptide: ACPLVNPLCLLDGWTCA
modifications: linker 2-9-16 via TATA (inferred)
B50: Bicycle Compound Number 59 (TATA scaffold), ACPLVNPLCLMPGWGCA (peptide)
peptide: ACPLVNPLCLMPGWGCA
modifications: linker 2-9-16 via TATA (inferred)
B51: Bicycle Compound Number 60 (TATA scaffold), ACPLVNPLCMIGNWTCA (peptide)
peptide: ACPLVNPLCMIGNWTCA
modifications: linker 2-9-16 via TATA (inferred)
B52: Bicycle Compound Number 61 (TATA scaffold), ACPLVNPLCLMTGWSCA (peptide)
peptide: ACPLVNPLCLMTGWSCA
modifications: linker 2-9-16 via TATA (inferred)

The binders below were run against T1, Human EphA2 (Ecto) (Human, UniProt P29317 24-537) (assay: FP competition, tracer Compound 18).
T1 construct: extracellular domain
Method: (§1) Peptides without a fluorescent tag were tested in competition with a peptide with a fluorescent tag and a known Kd (Table 2). Peptides were diluted to an appropriate concentration in assay buffer as described in the direct binding assay with a maximum of 5% DMSO, then serially diluted 1 in 2. […] Measurements were conducted as for the direct binding assay, however the gain was determined prior to the first measurement. Data analysis was in Systat Sigmaplot version 12.0 where the mP values were fit to a user defined cubic equation to generate a Ki value: […]
T1 sequence (P29317 24-537): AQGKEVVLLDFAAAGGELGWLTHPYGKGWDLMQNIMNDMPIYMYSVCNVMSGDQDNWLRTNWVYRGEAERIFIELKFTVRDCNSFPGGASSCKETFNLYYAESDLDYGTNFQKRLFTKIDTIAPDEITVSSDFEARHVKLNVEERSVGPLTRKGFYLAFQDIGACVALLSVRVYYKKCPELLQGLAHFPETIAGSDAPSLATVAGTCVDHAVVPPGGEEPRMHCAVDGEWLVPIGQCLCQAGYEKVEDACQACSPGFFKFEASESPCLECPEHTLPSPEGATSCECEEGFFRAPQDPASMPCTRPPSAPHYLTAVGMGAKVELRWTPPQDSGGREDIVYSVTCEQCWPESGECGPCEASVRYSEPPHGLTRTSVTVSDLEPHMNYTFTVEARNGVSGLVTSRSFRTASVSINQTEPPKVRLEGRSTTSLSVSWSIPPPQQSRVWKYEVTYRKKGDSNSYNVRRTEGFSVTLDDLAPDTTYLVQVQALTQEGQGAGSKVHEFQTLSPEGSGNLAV
B1 showed a Ki of 1.29 nM. B2 showed a Ki of 0.84 nM. B3 was tested, and the Ki was 0.75 nM. For B4, the Ki was 1.8 nM. In the case of B5, the Ki is reported as 4.8 nM. B6 showed a Ki of 0.66 nM. B7 was tested, and the Ki was 0.87 nM. In the case of B8, the Ki is reported as 0.28 nM. With B9 the Ki was 3.8 nM.

These binders were tested against T2, Human EphA2 (Ecto) (Human, UniProt P29317 24-537) (assay: FP competition; tracer Reference Compound C).
T2 construct: extracellular domain; in-house)
Method: as §1
T2 sequence (P29317 24-537): as above
B10 was tested, and the Ki was 278 nM. B11 was tested, and the Ki was 70 nM. With B12 the Ki was 85 nM. With B13 the Ki was 70.8 nM. B14 gave a Ki of 94.8 nM. Binder B15 has a Ki of 57 nM. B16 was tested, and the Ki was 62.1 nM. In the case of B17, the Ki is reported as 130 nM. For B18, the Ki was 97.3 nM. Binder B19 has a Ki of 159 nM. With B20 the Ki was 1700 nM. With B21 the Ki was 268 nM. In the case of B22, the Ki is reported as 348 nM. In the case of B23, the Ki is reported as 282 nM. Binder B24 has a Ki of 160 nM. B25 was tested, and the Ki was 400 nM. B26 was tested, and the Ki was 321 nM. B27 was tested, and the Ki was 81.7 nM. B28 showed a Ki of 188 nM. Work on B29 yielded a Ki of 320 nM. For B30, the Ki was 127 nM. In the case of B31, the Ki is reported as 140 nM. With B32 the Ki was 155 nM. B33 was tested, and the Ki was 234 nM. B34 showed a Ki of 142 nM. For B35, the Ki was 185 nM. In the case of B36, the Ki is reported as 144 nM. For B37, the Ki was 84.4 nM. With B38 the Ki was 115 nM. In the case of B39, the Ki is reported as 30 nM. For B40, the Ki was 15.4 nM. B41 was tested, and the Ki was 15.2 nM. Binder B42 has a Ki of 20.6 nM. B43 gave a Ki of 35.4 nM. Work on B44 yielded a Ki of 46.2 nM. B45 gave a Ki of 53.9 nM. B46 showed a Ki of 56.1 nM. In the case of B47, the Ki is reported as 20 nM. B48 showed a Ki of 184 nM. For B49, the Ki was 38.4 nM. B50 showed a Ki of 114 nM. B51 showed a Ki of 96.2 nM. With B52 the Ki was 242 nM.
